According to the nanobody polyreactivity screen of Harvey et al. (2022):

Assay: yeast display, Sf9 membrane polyspecificity reagent, FACS + sequencing; frameworks hold sequencing errors
How it was run: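 Sorting gates, low and high (top ~1%), were placed on anti-HA fluorescence to track expression and on streptavidin fluorescence to track reagent binding. A clone's polyreactivity label is taken from the gate it came out of. The reagent was 10% biotinylated, detergent-solubilized Sf9 membrane, applied for 1 hour at 4 °C to galactose-induced yeast display cells.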

Row | Sequence | polyreactivity (PSR sort gate)
1 | QVQLVESGGGLVQAGGSLRLSCAASGRIFGRYAMGWYRQAPGKERELVAVISARGARTYYADSVKGRFTISRDNAKNTVYLQRNSLKPEDTAVYYCAVDQYATDDYWGQGTQVTVSS | high polyreactivity
2 | QVQLVESGGGLVQAGGSLRLSCAASGRIFGGYAMGGDRQAPGKERELVAVISGRGGSTYYADSVKGRFTISRDNAKNTVYLQMNSLKPEDTAVYYCTVYRRIQRYGPQSYDYWGQGTQVTVSS | high polyreactivity
3 | QVQLVESGGCLVQAGGSLRLSCAASGNIFGIYTMGLYTHAPGKERELVASIRTGGSTNYADSVKGRFTISRDNAKNTDYLQMNSLKPEDSSVYYCNARKLFSSSYGYWGQGTQVTVSS | high polyreactivity
4 | QVQLVESCGGLVQAGGSLRLSCAASGSTFINYAMGWYRQAPGKERELVAAYAYSVKGRFTISRDNAKITVYLQMKSLKPEDTAVYYCNAVTGDWGQGTQVTVSS | low polyreactivity
5 | QVHLVESGGGLVQAGGSLRLSCAASGLTFYYYVMGWYRQAPGKERELVAAISYSGGRTYYADSVKGRFTISRDNAKNTVYLQMNSLKPEDTAVYYCAAQSRYGGKFYYWGQGTQVTVSS | high polyreactivity
6 | QVQLVESGGGLVQAGGSLRLSCAASGNIFGDYAMGWYRQAPGKERELVAAITQTGGNTYYADSVKGRFTISRDNAKNTVYLQMNSLKPEDTAVYYCNKVSVVYSRSKGFYYTYLKYEYWGQGTQVTVSS | low polyreactivity
7 | QVQLVESGGGLVQAGGSLRLSCAASGFIFGGFTMGWSRQAPGNERELVAAISRSGGSTYYADSVKGRFTISRDNAKNTVYLQMNSLKPEDTAVYYCATLNYYGEVEYWGQGTQVTVSS | high polyreactivity
8 | QVQLVESVGGLVQAGGSLRLSCAASGSIFYYNTMGWYRQAPGKVRELVATISSDGGTNYADSVKGRFTISRDNAKNTVYLQMNSLKPEDTAVYYCAAAVSPYSYWPGFDYWGQGTQVTVSS | low polyreactivity
9 | QVHLVESGGGLVQAGGSLRLSCAASGSIFGYNAMGWYRQAPGKERELVAAISLTTGSTYYADSVKGRFTISRDNAKNTVYLQMNSLKPEDTAVYYCAIRGFYRGYGQAYGYWGQGTLVTVSS | high polyreactivity
10 | QFQLVETGGGLVQAGGSLRLSCAASGRTFRFNAMGWYRQAPRKEREFVAAITSGGGTYYADSVKGRFTISRDNAKNPVYLQMNCLKPEDTAVYYCAAPRQYYLMVYWGQGTQVTVSS | low polyreactivity
11 | QVQLVESGGGLVQAGGSLRLSCAASGRTFGNYVMGWYRQAPGKERELVAAISRSGGSTYYADSVKGRFTISRDNAKNTVYLQMNSLKPVDTAVYYCNTVTTYEVEYWGQGTQVNVSS | high polyreactivity
12 | QVQLVESGGGLVQAGGSLRLSCAASGSIFSGNVIGWYRQAPGKERELVAAISGRGGSTYYADSVKGRFTISRDNAKNTVYLQMNSLKPEDTAVYYCAAVYLKTYYWGQGTQVTVSS | high polyreactivity
13 | QVQLVESGGGIVQAGGSLRLSCAASGRIFVRYAKGWYRQAPGKERELVAAITKSGGSTYYADSEKGRFTISRDTAKNTVYLQMNCLQPDDTAVYYCNADRFYIDYTNTYDSIRDYWGQGTLVTVSS | low polyreactivity
14 | QVQLVESGAGLVQAGGSLRLSCAASGSTFDGNVMGWYRQEPGKESELVAAISGGGSTNYADSVKGRFTISRDNAKNTVYLQMNSLKPEDTAVYYCATQYWHFPYWQYKYDYWGQGTQVTVSS | low polyreactivity
15 | QVQLQESGGGLVQAGGSLGCAASGNISTRSEMGWYRQAPGNEREFVATINSGGLTNYADSVKGRFTISRDNAKNTVNLRMNSLKPEDTAVYYRAVYGYFSDPYDYWGQGTQVTVSS | low polyreactivity
16 | QVQLVESGGGLVQAGGSLRLSCAASGRIFYAYTIGWYRQAPGKERELVAAISGSGSTYYADSVKGRFTISRDNAKNTVYLQMNSLKPVDTAVYYCAADVTGGRKYDYWGQGTQVSVSS | low polyreactivity
17 | QVQLVESGGGLVQAGGSLRLSCAASGFTFDSYAMGWYRPAPGKERELVAAITSDGSTYYADSVKGRFTISRDNAKNTVYLQMNSLKPEDTAVYYCAARSTARYGYWGQGTQVTVSS | low polyreactivity
18 | QVQLVESGGALVQAGGSLRLSCAASGRTFGHNAMGCSRQAPGKEREFVAAITYSGVRTFYADSVKGRFTISRDNAQNTVYLQMNSLKPEDTAVYYCATDWRRDYDYWGQGTQVTVSS | low polyreactivity
19 | QVQLVESGGGLVQAGGSLRLSCAASGRNISYNAMGGYRQAPGKERELVAAISWGGGSTYYADSVMGRFTISRDNAKNTVFLHMNSLKQDDTAVYYCAKGWYRIKRNDYWGQGTQVTVSS | low polyreactivity
20 | QVQLVESGGGLVQAGGSLRLSCAASGFTFWGNAMGWYRQAPGKERELVAAISRSGGRTYYADSVKGRFTISRDNAKNTVYLQMNSLKPEDTAVYYCAAGSSHHFDYEGGYWGQGTQVTVSS | low polyreactivity
21 | QVQLVESGGGLVQAGGSLRLSCAASGYTFRYYVMGWYRQAPGKERELVAAISFSGGSTYYADSVKGRFTISRDTAKNSGYLQMKSLKPEDTAVYYCAARPGGGKYRGYYYWGQGTQVTVSS | high polyreactivity
22 | QVQLVESGGGLVQAGGSLRLSCAASGRTLYTNAMGWYRQAPGKERELVAAITSGASTNYADSVKGRFTISRDNAKNSVYLQMNSLKPEDTSVYYCASRTYHLWNARRYDYWGQGTQVTVSS | low polyreactivity

Row | Sequence | polyreactivity (PSR sort gate)
23 | QVQLVESGGGLVQAGGSLRLSCAASGSTYSWYVMGWYRQAPGKERELVAAISYRGGRTYYADSVKGRFTISRDNAKNTVYLQMNSLKPEDTAVYYCAARGVVDAGRTNRPYDYWGQGTQVTVSS | low polyreactivity
24 | QVQLVESGGGLVQAGGSLRLSCAASGSTFPSNVMGWNRQAPVKERELVAAITWSGVRTYYADSVKGRFTISRDNAKNTVYLQMNSLKPEDTAVYYCAARSTYVRYDYWGQGTQVTVSS | high polyreactivity
25 | QVQLVESGGGLVQAGGSLRLSCAASGSTFSDNAMGGYRQAAGKERELVAAISWTGGSTYADSVKGRFTISRDNAKNTVYLQMNRLKPEDTAVYYCAAGGDFDGNYWGQGTQVTVSS | low polyreactivity
26 | QVQLVESGGGLVQAGGSLRLSCAASGFIFYYYAMGWYRQAPGKERELVAAISSSGTSTYYADSVKGRFTISRDNAKYTVYLQMNSLKPEDTAVYYCAAYSSHREDYWGQGTQVTVSS | high polyreactivity
27 | QVQLVESGGGLVQAGGSLRLSCAASGYIYAYYAMGWYRQAPGKERELVAAITGRGDTTYYADSVKGRFTISRDNAKNTVYLQMNSLIPEDTAVYYCNAEKPTYYYVPGKYDVDYWGQGTQVTVSS | low polyreactivity
28 | QVQLVESGGGLVQAGGSLRLSCAASGRIFTYNAMGWYRQAPGKERELVAAITYRGSSTYYADSVKGRFTISRDNAKNTVYLQMNSLKPEDTAVYYCAAPRLIRFVTYYSWGQGTQVTVSS | high polyreactivity
29 | QVQLVESGGGLVQAGGSLRLSCAASGSIFWSYGMGWYIQAPGKERELVASTRYADSVKERFTISRDNAKNTVYLLMNSLKPEDTAVYYCAADVWTLDPDEYDYWGQGTQVTVSS | low polyreactivity
30 | QVQRVESGGGLVQAGGSLRLSCAASGRIFYFNAMGWYRQAPGKEWELVAVINSSGSTDYADSVKGRFTISRDNAKNTVYLQMNSLKPEDTAVYYCAAEVTPSGYGYWGQGTQVTVSS | low polyreactivity
31 | QVQLVESGGGLVQAGGSLRLSCAASGSTLWDYAMGWYRQAPGKERELVAAITQDGGSTYYADSVKGRFTISRDNAKNTVYLQMNSLKPEDTAVYYCAAEYWYDGGGYWGQGTQVTVSS | low polyreactivity
32 | QVQLVESGGGLVQAGGSLRLSCAASGRTFAFNAMGWYRPAPGKERELVAAIRWSGGCTYYADSVKGRFTISRDSPKNTVSLQMNTLKPEDTAVYYCAAYEKRLGYDYWGQGTQVTVSS | high polyreactivity
33 | QVQLVESGGGLVQAGGSLRLSCAASGFTFEKNAMGWYRQAPGKERELVAAITSGGSTYYADSVKGRFTISRDNAKNTVYLQMNSLKPEDTAVYYCNAYYTYRFNYWGQGTQVTVSS | high polyreactivity
34 | LVQLVESGGRLVQAGGSLRLSCAASGRTFPAYTMGWYRQSPGKERDLVAANYSSGGTTYYADSVKGRFTISRDNAKNTVYLQIYSINPEDNAVYYCNAYLGYYYYYLDALIGYDYWGQGTQVTVSS | low polyreactivity
35 | QVQLVESGGGLVQAGGSLRLSCAASGRIFGTNAMGWYRQAPGKERELVAAISRSGGSTYYADSVKGRFTISRDNAKNTVYLQMNSLKPEDTAVYYCATDGRHTYYYWGQGTQVTVST | high polyreactivity
36 | QVQLQESVGGLVQAGGSLRLSCAASGTIFRISDMGSYRQAPGKEREFVAAITYGANTYYADSGKGRFTISRDNAKNTVYLQMNSLKPEDTAVYYCAVPPVKETILDYWGQGTQVTVSS | low polyreactivity
37 | QVQLVESGGGLVQAGGSLRLSCAASGSTFYLNAMGWYRQAPGKERELVAAISSGGNTNYADSVKGRFTISRDNAKNTVYLQMNSLKPEDTAVYYCAAVYLSWYGLGEYWGQGTQVTVSS | low polyreactivity
38 | QDQLVESGGGLVQAGGSLRLSCAASGFIFDDNAMGWSRQAPGKERELVAAITSGGGSTYYAVSVKGRFTISRDNAKNTVYLQMNSLKPEDTAVYYCNAVPSQHDEFDYWGQGTQVTVSS | low polyreactivity
39 | QVQLVESGGGLVQAGGSLRLSCAASGRIFTVYAMGWYRQAPGKERELVAAISGRGGRTYYADSVKGRFTISRDNAKNTVYLQMNSLKPEDTAGYYCNADTLTLSRPDGDIHTVWMDYWGQGTQVTVSS | low polyreactivity
40 | QVQLVESGGGLVQEGGSLRLSCAASGRIFKYNAMGWYRQAPGKERELVAAISSSGGSTYYADSVKGRFTISRDNAKNTVYLHMNSLKPEDTAVYYCAARYNSRVYRYDYWGQGTQVTVSS | high polyreactivity
41 | QVQLVESGGGLVQAGGSLRLSCAASGRIFTTYAMGWYSRGPGKERELVAAISQNGGSTYYADSVKGRFTISRDNAKNTVYLQMNSLKPEDTAVYYCNAGPAGYYDYDYRGQGTQVTVSS | low polyreactivity
42 | QVQLVESGGGLVQAGGSLRLSCAASGRIFRVYAMGWYRQAPGKERELVAAISWSGGRTYYADSVKGRFTISRDNAKNTVYLQMNSLKPEDTAVYYCAAVSCYALGFDYWGQGTQVTVSS | high polyreactivity
43 | QVQLVESGGGLVQAGGSLRLSCDASAYIFVYNVMGWYRQAHGKERELVAAITSGGSTNYADSVKGRFTISRDNAKNTVYLQMNSLKPEDTAVYYCNAQFDLTFRGTGDYWGQGTQVTVSS | low polyreactivity
